Our source for the decrease of GIRK1* current (two-electrode voltage clamp, Xenopus oocytes coexpressing GIRK1* and Gβγ) 40-50 min after injection of purified His-phosducin to ~23 µM values is paper PMC6346094.

The target in this assay is Gβγ (bovine) (UniProt P62871).

The substance “His-tagged phosducin (from UniProt P19632 1-245) (natural protein)” had a decrease of GIRK1* current (two-electrode voltage clamp, Xenopus oocytes coexpressing GIRK1* and Gβγ) 40-50 min after injection of purified His-phosducin to ~23 µM of 74%.
